Measured values as given in article doi:10.1101/2024.07.12.603331 (bioRxiv, 2024).

Target: neonatal Fc receptor (FcRn), recombinant ectodomains (UniProt P55899;P61769)
Experiment: BLI

Chain of neonatal Fc receptor (FcRn), recombinant ectodomains (P55899 24-297, chain 1 of 2): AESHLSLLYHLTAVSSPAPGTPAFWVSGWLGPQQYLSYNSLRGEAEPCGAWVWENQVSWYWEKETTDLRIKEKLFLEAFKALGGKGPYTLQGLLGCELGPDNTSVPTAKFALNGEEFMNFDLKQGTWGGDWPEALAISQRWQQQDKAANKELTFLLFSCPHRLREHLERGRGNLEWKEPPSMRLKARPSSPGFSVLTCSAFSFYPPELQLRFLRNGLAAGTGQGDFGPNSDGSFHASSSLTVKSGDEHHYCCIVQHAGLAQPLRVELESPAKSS
Chain of neonatal Fc receptor (FcRn), recombinant ectodomains (P61769 21-119, chain 2 of 2): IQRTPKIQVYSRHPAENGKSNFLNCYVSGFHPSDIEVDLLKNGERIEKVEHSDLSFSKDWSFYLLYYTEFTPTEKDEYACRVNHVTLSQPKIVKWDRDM

B1: HAstV1 spike protein VP25 (residues S424 to R648) (domain or fragment)
chain: SIPAPGEEFKVVLTFGAPMSPNANNKQTWVNKPLDAPSGHYNVKIAKDVDHYLTMQGFTSIASVDWYTIDFQPSEAPAPIQGLQVLVNSSKKADVYAIKQFVTAQTNNKHQVTSLFLVKVTTGFQVNNYLSYFYRASATGDATTNLLVRGDTYTAGISFTQGGWYLLTNTSIVDGAMPPGWVWNNVELKTNTAYHMDKGLVHLIMPLPESTQMCYEMLTSIPRSR
modifications: biotin (EZ-link NHS-PEG4-Biotin)
Kd: 578 nM
